Measured values taken from the supplement of paper PMC10567573.

B1: SMARCE1 (parent)
chain: YHNSPAYLAYINAKSRAEAALEEE
B2: CHIT1 (parent)
chain: CSWKGATKQRIQDQKVPYIFRDNQ

Variants of: B1
Experiment: protein stability index of a GFP-peptide fusion (GPS, HEK-293T) (PSI 1-6); higher = more stable
Conditions: c terminus: a fixed tail appended
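Also: lentivirally expressed fusions sorted by FACS into six bins by GFP to DsRed ratio, PSI derived from sequencing read proportions per bin multiplied by bin number.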

Row | Variant | protein stability index
1 | YHNSPAYLAYINAKSRAEAALEEG | 1.95
2 | YHNSPAYLAYINAKSRAEAALEEH | 1.91
3 | YHNSPAYLAYINAKSRAEAALEEI | 1.88
4 | YHNSPAYLAYINAKSRAEAALEEK | 2.91
5 | YHNSPAYLAYINAKSRAEAALEEL | 1.56
6 | YHNSPAYLAYINAKSRAEAALEEM | 2.55
7 | YHNSPAYLAYINAKSRAEAALEEN | 2.47
8 | YHNSPAYLAYINAKSRAEAALEEP | 1.45
9 | YHNSPAYLAYINAKSRAEAALEEQ | 3.45
10 | YHNSPAYLAYINAKSRAEAALEER | 2.71
11 | YHNSPAYLAYINAKSRAEAALEES | 3.47
12 | YHNSPAYLAYINAKSRAEAALEET | 2.17
13 | YHNSPAYLAYINAKSRAEAALEEV | 2.19
14 | YHNSPAYLAYINAKSRAEAALEEW | 1.63
15 | YHNSPAYLAYINAKSRAEAALEEY | 1.71

Variants of: B2
Experiment: as above
Conditions: c terminus: a fixed tail appended

Row | Variant | protein stability index
16 | ASWKGATKQRIQDQKVPYIFRDNQ | 3.17
17 | DSWKGATKQRIQDQKVPYIFRDNQ | 3.26
18 | ESWKGATKQRIQDQKVPYIFRDNQ | 3.13
19 | FSWKGATKQRIQDQKVPYIFRDNQ | 1.75
20 | GSWKGATKQRIQDQKVPYIFRDNQ | 3.47
21 | HSWKGATKQRIQDQKVPYIFRDNQ | 3.08
22 | ISWKGATKQRIQDQKVPYIFRDNQ | 2.62
23 | KSWKGATKQRIQDQKVPYIFRDNQ | 3.36
24 | LSWKGATKQRIQDQKVPYIFRDNQ | 2.74
25 | MSWKGATKQRIQDQKVPYIFRDNQ | 2.89
26 | NSWKGATKQRIQDQKVPYIFRDNQ | 2.88
27 | PSWKGATKQRIQDQKVPYIFRDNQ | 2.86
28 | QSWKGATKQRIQDQKVPYIFRDNQ | 2.81
29 | RSWKGATKQRIQDQKVPYIFRDNQ | 2.86
30 | SSWKGATKQRIQDQKVPYIFRDNQ | 3.58
31 | TSWKGATKQRIQDQKVPYIFRDNQ | 2.79
32 | VSWKGATKQRIQDQKVPYIFRDNQ | 2.91
33 | WSWKGATKQRIQDQKVPYIFRDNQ | 2.26
34 | YSWKGATKQRIQDQKVPYIFRDNQ | 1.96
35 | CAWKGATKQRIQDQKVPYIFRDNQ | 2.39
36 | CCWKGATKQRIQDQKVPYIFRDNQ | 2.06
37 | CDWKGATKQRIQDQKVPYIFRDNQ | 3.06
38 | CEWKGATKQRIQDQKVPYIFRDNQ | 3.25
39 | CFWKGATKQRIQDQKVPYIFRDNQ | 3.22
40 | CGWKGATKQRIQDQKVPYIFRDNQ | 2.07
41 | CHWKGATKQRIQDQKVPYIFRDNQ | 2.42
42 | CIWKGATKQRIQDQKVPYIFRDNQ | 1.74

Row | Variant | protein stability index
43 | CKWKGATKQRIQDQKVPYIFRDNQ | 2.01
44 | CLWKGATKQRIQDQKVPYIFRDNQ | 2.18
45 | CMWKGATKQRIQDQKVPYIFRDNQ | 2.43
46 | CNWKGATKQRIQDQKVPYIFRDNQ | 2.53
47 | CPWKGATKQRIQDQKVPYIFRDNQ | 3.02
48 | CQWKGATKQRIQDQKVPYIFRDNQ | 1.93
49 | CRWKGATKQRIQDQKVPYIFRDNQ | 2
50 | CTWKGATKQRIQDQKVPYIFRDNQ | 2.17
51 | CVWKGATKQRIQDQKVPYIFRDNQ | 1.85
52 | CWWKGATKQRIQDQKVPYIFRDNQ | 2.69
53 | CYWKGATKQRIQDQKVPYIFRDNQ | 1.49
54 | CSAKGATKQRIQDQKVPYIFRDNQ | 2.78
55 | CSCKGATKQRIQDQKVPYIFRDNQ | 2.06
56 | CSDKGATKQRIQDQKVPYIFRDNQ | 3.73
57 | CSEKGATKQRIQDQKVPYIFRDNQ | 4.03
58 | CSFKGATKQRIQDQKVPYIFRDNQ | 2.78
59 | CSGKGATKQRIQDQKVPYIFRDNQ | 3.19
60 | CSHKGATKQRIQDQKVPYIFRDNQ | 3.06
61 | CSIKGATKQRIQDQKVPYIFRDNQ | 2.95
62 | CSKKGATKQRIQDQKVPYIFRDNQ | 3.63
63 | CSLKGATKQRIQDQKVPYIFRDNQ | 2.71
64 | CSMKGATKQRIQDQKVPYIFRDNQ | 2.69
65 | CSNKGATKQRIQDQKVPYIFRDNQ | 2.93
66 | CSQKGATKQRIQDQKVPYIFRDNQ | 3.6
67 | CSRKGATKQRIQDQKVPYIFRDNQ | 3.71
68 | CSSKGATKQRIQDQKVPYIFRDNQ | 3.14
69 | CSTKGATKQRIQDQKVPYIFRDNQ | 3.23

Row | Variant | protein stability index
70 | CSVKGATKQRIQDQKVPYIFRDNQ | 3.46
71 | CSYKGATKQRIQDQKVPYIFRDNQ | 3.04
72 | CSWAGATKQRIQDQKVPYIFRDNQ | 1.94
73 | CSWCGATKQRIQDQKVPYIFRDNQ | 2.36
74 | CSWDGATKQRIQDQKVPYIFRDNQ | 2.7
75 | CSWEGATKQRIQDQKVPYIFRDNQ | 2.43
76 | CSWFGATKQRIQDQKVPYIFRDNQ | 1.26
77 | CSWGGATKQRIQDQKVPYIFRDNQ | 2.68
78 | CSWHGATKQRIQDQKVPYIFRDNQ | 3.06
79 | CSWIGATKQRIQDQKVPYIFRDNQ | 2.04
80 | CSWLGATKQRIQDQKVPYIFRDNQ | 1.84
81 | CSWMGATKQRIQDQKVPYIFRDNQ | 2.6
82 | CSWNGATKQRIQDQKVPYIFRDNQ | 2.5
83 | CSWPGATKQRIQDQKVPYIFRDNQ | 3.33
84 | CSWQGATKQRIQDQKVPYIFRDNQ | 3.06
85 | CSWRGATKQRIQDQKVPYIFRDNQ | 2.75
86 | CSWSGATKQRIQDQKVPYIFRDNQ | 2.6
87 | CSWTGATKQRIQDQKVPYIFRDNQ | 2.49
88 | CSWVGATKQRIQDQKVPYIFRDNQ | 1.94
89 | CSWWGATKQRIQDQKVPYIFRDNQ | 2.12
90 | CSWYGATKQRIQDQKVPYIFRDNQ | 2.2
91 | CSWKCATKQRIQDQKVPYIFRDNQ | 1.57
92 | CSWKDATKQRIQDQKVPYIFRDNQ | 2.67
93 | CSWKEATKQRIQDQKVPYIFRDNQ | 3.34
94 | CSWKFATKQRIQDQKVPYIFRDNQ | 1.37
